# Assay results reported in patent publication US20230140200A1, “COMPOSITIONS AND METHODS FOR DETECTING CELLS UNDERGOING FERROPTOSIS USING AN ANTIBODY” (THE TRUSTEES OF COLUMBIA UNIVERSITY IN THE CITY OF NEW YORK, priority 2020, published 2023).
# “Also recorded” adds a separate entry of the source.
# What was measured:
# HT-1080 cells [1] = assay: Immunofluorescence staining of treated cells, quantification of membrane intensity; format: cell-based, human
# HT-1080 cells [2] = assay: Flow cytometry staining without permeabilization; format: cell-based, human; conditions: vs DMSO
# [3] = system: B cell lymphoma mouse xenograft tumor tissue (SU-DHL-6 cells); assay: Staining of B cell lymphoma mouse xenograft tumor tissue sections; conditions: 40 mg/kg IKE once daily IP for 14 days
# Description: Tumor tissues were fixed in 4% paraformaldehyde (PFA) for 24 h at 4° C. followed by washing with PBS three times. The tissues were perfused in 30% sucrose for 24 h at 4° C. for cryo-protection. The samples were embedded in OCT cryostat sectioning medium, and then moved directly into a cryostat. After equilibration of temperature, frozen tumor tissues were cut into 5 μm thick sections. Tissue sections were mounted on to poly-L-lysine coated slides by placing the cold sections onto warm slides. Slides were stored at −80° C. until staining. For staining, slides were warmed to room temperature followed by washing with PBS twice. A hydrophobic barrier pen was used to draw a circle on each slide. The slides were permeabilized with PBS with 0.4% Triton X-100 (PBT) twice before non-specific-binding blocking by incubating the sections with 10% goat serum (ThermoFisher 50197Z) for 30 min at room temperature. […] All images were captured on a Zeiss LSM 800 confocal microscope at Plan-Apochromat 63×/1.40 Oil DIC objective with constant laser intensity for all analyzed samples. The intensity above threshold of the fluorescent signal of the bound antibodies was analyzed using NIH ImageJ software (ImageJ, RRID:SCR_003070). Data were expressed as fold change comparing with the vehicle. […]
# A-673 cells = assay: Immunofluorescence in A-673 cells; format: cell-based, human; conditions: 1 μM RSL3, 4 h
molecule,measurement,setting,value
"3F3-FMA: Murine monoclonal IgG1 raised against ferroptotic membrane fractions; antigen is transferrin receptor protein 1 (TfR1) (antibody, V domains shown) VH: EVLLQQSGTELVRPGALVKLSCKASGFNIQDLYIHWVKQRPEQGLEWIGWIDPETDNTIYDPKFQGKASITADTSSNTAYLQLSSLTSEDTAMYYCSTGLLQWYFDVWGAGTAVTVSS VL: DIVMTQSPSSLAMSIGQKVTMRCKSSQSLLNSYNQKNCLAWYQQKPGQSPKLLLYFVSTRESGVPDRFIGSGSGTDFTLTISSVQAEDLADYFCQQHYSTPLTFGAGTKLELK",co-localization with GM130 (Golgi marker),"HT-1080 cells [1]; 1 μM RSL3, 4 h",located in the Golgi
same,co-localization with Tom20 (mitochondria) and PDI (ER) markers,"HT-1080 cells [1]; 1 μM RSL3, 4 h",not visible in mitochondria or the ER
same,antibody staining / membrane intensity in RSL3-induced ferroptosis,"HT-1080 cells [1]; 1 μM RSL3, 4 h, vs DMSO",stained cell boundaries and the inside puncta became brighter
same,antibody staining on cell surface in STS-induced apoptosis,"HT-1080 cells [1]; 1 μM STS, 6 h",wasn't detected
same,antibody membrane intensity in camptothecin-induced apoptosis,"HT-1080 cells [1]; 2 μM camptothecin, 24 h",no significant increase
same,antibody membrane intensities in H2O2-treated cells,"HT-1080 cells [1]; 1 mM H2O2, 4 h",didn't observe increased membrane intensities
same,antibody staining intensity by flow cytometry in RSL3-treated cells,"HT-1080 cells [2]; 1 μM RSL3, 4 h",increased intensities
same,antibody staining intensity by flow cytometry in STS-induced apoptosis,"HT-1080 cells [2]; 1 μM STS, 6 h",decreased intensity; also recorded: decreased intensities
same,antibody staining intensity in IKE-treated vs vehicle tumor tissue,[3],did not detect its antigen; also recorded: no difference
same,3F3-FMA staining upon ferroptosis induction,A-673 cells,concentrated at the cell boundaries and became brighter
